Assay results as given in a protein production outcome set (Wang et al. 2014).

Assay: label from the status in PepcDB records
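Note: failed if final PepcDB status was selected cloned or expressed and not failed if soluble or beyond.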

MQSRFRSDRRLTVRMGVTLFLLGLLYVGFVAALIALLKSWVLVVVIVALVFGAQYWFSDRIALFAMRGRVVEREEYPELHGVVDRLAAMADMPKPVVAVSEMEMPNAFATGRNPDNAVVCVTTGLLRRLEPAELEGVLAHELSHVAHKDVAVITVASFLGVIAGLIVRFAFYSQLFGGRRDQNTLAVLAVVMGVSAAVYALSFLLIRALSRYRELAADRAAALLTGRPSALAAALTKVTGDIARIPTKDLRTAQAFNAFYFTPAFGSDPGLGRFFATHPSLEQRLDQLGRISTELGEAPAPGKA
protein production: failed

MTNTRNENLGYVYGLIAVTAFALTLPAMRAALSALDPVFVALGRGAGAAVLAAVFLWFTRQRLPTREEAKGLIIVAAGAVIGFPLLAAWAMLYVDASHGGVVLGILPLATAVAAALFSNERPSMKFWLFALIGAGLVVGYSLSRAGGTLHPADLALFGSIVCAGVSYAEGARLSKSLGGPQVISWALVFSFPILIIPAIHYAPVSLNLPLESWLGFIYLTVISQYLGFFPWYHGLALGGIAKVGQTQLLQPFLTIIASVLLLGEHADLMTWLVATLVVAVVAVGKHAQVKHNDPESATIADTSPHS
protein production: failed

MTELGTVLDGKYEILKKVGQGGMSIVYLAMDNRLNKQWAVKEIKNDGSKSTATLLKSLEREANILKDVDHPVLPRIVDIINENGTIYVVMDFVEGKPLSDVLKAEGAQDQNKVIEWGRALASALDYLHSMNPPIIYRDMKPSNVMLKPDGSVKLIDFGTAKEYIVENNADTTALGTRGYAAPEQFGDSQGRGIYNTDARTDIYNLGATLYHLVTGKNPCEPPYEIKPIRQWNPTLSSGFEQIIIKCCQPSPEDRYQSCSELLYALDHYNELDNEFKAKAKRKVAVFATMAGLSILSGCCAIFGGVKKGQLKEQDYNNKIAEAEDAVDSSDYNKAFECYKAAVDIDPTASEAYIGYMDTYAYYYTDEDVATGTGTETPAEKGIKFALRNIDKVKDDVKYEIALLYFNEVPDYSAARKYFNMVGDTENFANDVKQAKYYEAICDNKINKTADFNDSKQEVFDFQQYNSDNIDDTNTYKYVNYLNIATIYVDKLSSDEELANRTIELLQEASDKLNDNATVLSKEFPEERGVNYYSGQYSAILCSVYTYLAEKESDPVEQVAYYREAINSIDSYLSGLDMNGDAVTEKTKNVYAEYSRKKAEIYVSMGDISGDDKNYELAENVYLSAEQMLGVDDYSADLYTSHLTYLYNRYTDLYGSAPDTWDKSARNTVISVYNSGSRISMLADGKKPQWNTLIHKPVIEAIVSGTGSKTGK
protein production: failed

MSVYHHILLAVDFSSEDSQVVQKVRNLASQIGARLSLIHVLDNIPMPDTPYGTAIPLDTETTYDAMLDVEKQKLSQIGNTLGIDPAHRWLVWGEPREEIIRIAEQENVDLIVVGSHGRHGLALLLGSTANSVLHYAKCDVLAVRLRDD
protein production: not failed

MKTLVIVAHPNLETSVVHKRWVEELKKYPEKYTVHELSDVYPDGNIDAEKEQKLVESHGNLVLQFPIYWFNCPPLLKKWLDDVLAYGWAYGSNGGDRLNNRKVALGVSAGIKEEDYRENGRYRYTLEQILVPFETTFRYCRADYRSFFAFYGKEKEPGGNEEEENEPGAGELEKSARDYLHFIDHM
protein production: failed

MIIVGFIGLVLVIILSAVLSLLRARSEALRQQQQFLAQLCPQLERQKTDRSPLNIPVVPQECEPLYHALNEMLAALPAGMGKDKLTGLINRVGLKRTLASLMPITQGTLVLIDIYRFRYVNDLLGFVFGDILLKQFAERLTSLSLKPKLIARLNGDEFFLYYEQSLSQEQLLHLRGRLQVPFNIKDTPVSVRLQIGCLQLAQHHADVSNMLRRLDLALKKARSTRIAIACYSENDDIRQLRELKIIDSLPNGLQRNHLYMVYQPKQDVSSEGCTQVEALIRWEHEELGVISPGEFIPLAECAGMIDLVSHWALEQVLQQQVKWRLAGISVCVALNLSTRDLDSETLPHELDARLKHYQLPPECLMIEITESTLMADLNKAVDTLVQIRRLGIHLAIDDFGTGHSSLAYLKHLPANEVKIDKVFLQDLKPNQPSEYILEASVNIAKKLGYEVTVEGVETQEVRDLLVKMGVDRIQGLCYAKPMRAVELEMHWHRLCPAPKMLSANLGSHP
protein production: failed

MKIRNACKEDAQQLIAIYASYVEKTAITFEYQVPSLEEFEERIEKTKQKFPYLVAEEEGILQGYAYASVYYNHAAYDWTVELSIYIKEEARGKHIGSQLYASLERNLQEAGFVNLLVCIALPNNASLTFHKKHGYEQVAHFKKVGYKFDKWYDIVWMQKRLLD
protein production: failed

FTLEEEDITGTWYVKAMVVDKDFPEDRRPRKVSPVKVTALGGGNLEATFTFMREDRCIQKKILMRKTEEPGKFSAYGGRKLIYLQELPGTDDYVFYCKDQRRGGLRYMGKLVGRNPNTNLEALEEFKKLVQHKGLSEEDIFMPLQTGSCVLEH
protein production: failed

MKKEIASHLLEIGAVFLQPNDPFTWSSGMKSPIYCDNRLTLSYPKVRQTIAAGLEELIKEHFPTVEVIAGTATAGIAHAAWVSDRMDLPMCYVRSKAKGHGKGNQIEGKAEKGQKVVVVEDLISTGGSAITCVEALREAGCEVLGIVSIFTYELEAGKEKLEAANVASYSLSDYSALTEVAAEKGIIGQAETKKLQEWRKNPADEAWITA
protein production: not failed

MLDGWQEIEADQIKRMQSALWHLLGNAIAYLSLFVIELVLATIGHSQSLHADAFNNFAGIVSSGLLSLGIWGGIHNHQSHQSKVTALDGWEAERRNRLMRFRLQDLFTLMSGVIMLVMAVQVIVSGVSNLFKSHTVQAVSGVTVWGAAIASIVMLVVWYFNRRGGQQLDNSTLLAAAKDSLSDALTSIGTLISLSGVLLFKFAWLDSVASIVIGFFIFAAGLQIFRDSGLQLINYSDPQVEKNYINTIQQIDGVNQVNAIDVQYSGSLVALSLVIAVSPRMTVAASFQLSERIEQVMRNQYGIIDTKVMFMPQT
protein production: failed

MAGRRLIIGDVHGHYRSLYRLLELADPDTDDQVYCLGDLIDRGPDSAKVVALVRSQGYTSLMGNHEHLLSQVLAFPDLSELRLHWFQAGGQATLASFGSWEALEELRPWLQQLPLYLDLGEIWLVHAGVDPDLPLSRQDANEFCWIRDQFLARSQPFFANKTILVGHTITCTMAGIQPGYVAAGAGWLGLDTGVYHPRSGWLTALDWDNQRVFQVQAQSNETRVCDLAERLQTVLSNPAKGRRSLLRYPRDQVSPS
protein production: failed

MLKVLFVPLNRNYVFDYIDDWKNIVADSLSRAGLSSEILIWPSTIKPSMKCFNWARKQYLAPCIIENMGNMFYDYLNEYFIVGIGYIDGYDYGLNFVFGEASPINRIAVVFTRRLDPRFYGEEPNYNLYLERVAKEIVHELGHLLGLSHCKRRTCVMSFSNSVYEVDAKTRFFCETCSNTLRKLNVLEHHHHHH
protein production: failed

MTDYFHLHFNKGEFNAENLFIELKGNFAVYGSRWYFGESIETLKGTARTLDKADGAISLEDGIISRNGIALLDDSQGFIWDEQSGYIERENQIDLYFFAYGHDYRGAIRDFYHLTGSTPLLPRYALGNWWSRYWPYTSDEYLDLIDRFETEKIPLSIGVLDMDWHITDIPARFGSGWTGYSWNRNLIPNPEQLLQQLHDRKLKLSLNVHPADGIRAYEEAYPQIAKRLGLNVELEEPAIFDFFNPSFREAYFKDVHYELEKQGVDFWWIDWQQGTQGMLDPLWLLNHYHYQDSCKNAEGGLILSRYAGPGSHRYPVGFSGDTIISWNSLRFQPYFTATASNIGYSWWSHDIGGHMLGDYDEELQTRWLQFGVFSPITRLHSSRSPFNSKEPWFFSETTSKIMKKYLRLRHQMIPYLYTMNVQTHEEGAPLISPIYYFYPENDESYNVPNQYFFGTELMVAPIVEKMDLTFQSAKVDVWFPEGEWYDFFSEKKYTGGVKLSVYRDISTTPVFAKSGAIIPLVGSEIGMGVDLPEVVDWYVFPGKQHSFEMLEDQNGQRYKTRLSIDWEMGMVELALQGDSSIVPSNRKHRIHFKGTNVSIIELPNKNDTAKFEWKDNKRTSLNDEVFRLLKTASLPYELKDRLLNQFINAKNSHDLMNILHHQDKELRGRLLEMIFTSQNLEHHHHHH
protein production: failed

SAVLVALSLAGLPTDRFFFDGFLPSKQGARRARLGELAAIDATLVLFEAGSRIQNSVHDLADLLGATREAAICRELTKLHQEVRRATLAELAAQADTMETRGEFVVVIAP
protein production: failed

MANEATQELFQVLDNTAIILQNELEISYLEAVYETGENLFQKEVLQKEELSSEKQLKLQESYESIELENFSNEEIRKGLQLALLKGMKHGIQVNHQMTPDSIGFIVAYLLEKVIQKKKNISILDPACGTANLLTTVINQLELKGDVDVHASGVDVDDLLISLALVGADLQRQKMTLLHQDGLANLLVDPVDVVISDLPVGYYPDDENAKTFELCREEGHSFAHFLFIEQGMRYTKPGGYLFFLVPDAMFGTSDFAKVDKFIKKNGHIEGIIKLPETLFKSEQARKSILILRKADVNVKPPKEVLLANLSSLTDPSVTAPILAEIENWFKSKQ
protein production: not failed
